Experimental data taken from patent US20120079614A1 (ROYAL INSTITUTION FOR THE ADVANCEMENT OF LEARNING MCGILL …, published 2012).

B1: CD109 Peptide A (CD109 amino acids 606-766) (peptide)
chain: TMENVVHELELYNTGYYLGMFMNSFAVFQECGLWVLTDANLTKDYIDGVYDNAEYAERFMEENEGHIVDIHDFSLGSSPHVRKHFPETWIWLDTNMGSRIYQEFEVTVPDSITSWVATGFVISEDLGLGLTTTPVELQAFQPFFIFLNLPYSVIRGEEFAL
notes: also called CD109-based peptide
B2: TGF-β2 (ligand, UniProt P61812 303-414, looked up)
chain: ALDAAYCFRNVQDNCCLRPLYIDFKRDLGWKWIHEPKGYNANFCAGACPYLWSSDTQHSRVLSLYNTINPEASASPCCVSQDLEPLTILYYIGKTPKIEQLSNMIVKSCKCS

Tests used:
[1] = biological target: T1, Transforming Growth Factor-β1 (TGF-β1) (UniProt P01137 279-390, 125I label in the affinity labeling assays); test: SPR, BIACORE 3000; Peptide A amine-coupled on CM5 chip, TGF-β1 as analyte
T1 construct: The background describes TGF-β as a 25 kDa growth factor; also called I125TGF-β1
T1 sequence (P01137 279-390 limits assumed): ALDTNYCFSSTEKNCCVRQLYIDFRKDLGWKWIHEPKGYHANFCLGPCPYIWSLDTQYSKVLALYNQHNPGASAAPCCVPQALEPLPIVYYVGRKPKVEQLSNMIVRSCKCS
Procedure: (§1) Surface plasmon resonance assay: CD109 protein and peptides were tested for their ability to bind TGF-β using surface plasmon resonance. CD109 protein and peptides were amine-coupled onto a gold-dextran CM5 sensor chip as the ligands and TGF-β1/2/3 in HBS-ET buffer as the analytes were pumped across the CD109 amine-coupled sensor chip and binding response was measured using BIACORE 3000™ SPR detection system.

[2] = biological target: T2, soluble CD109 protein (full-length recombinant CD109) (human, UniProt Q6YHK3 22-1420, limits assumed); test: SPR, BIACORE 3000; CD109 amine-coupled on CM5 chip, TGF-β as analyte
T2 construct: also called FL CD109; CD109 soluble full-length protein
T2 sequence: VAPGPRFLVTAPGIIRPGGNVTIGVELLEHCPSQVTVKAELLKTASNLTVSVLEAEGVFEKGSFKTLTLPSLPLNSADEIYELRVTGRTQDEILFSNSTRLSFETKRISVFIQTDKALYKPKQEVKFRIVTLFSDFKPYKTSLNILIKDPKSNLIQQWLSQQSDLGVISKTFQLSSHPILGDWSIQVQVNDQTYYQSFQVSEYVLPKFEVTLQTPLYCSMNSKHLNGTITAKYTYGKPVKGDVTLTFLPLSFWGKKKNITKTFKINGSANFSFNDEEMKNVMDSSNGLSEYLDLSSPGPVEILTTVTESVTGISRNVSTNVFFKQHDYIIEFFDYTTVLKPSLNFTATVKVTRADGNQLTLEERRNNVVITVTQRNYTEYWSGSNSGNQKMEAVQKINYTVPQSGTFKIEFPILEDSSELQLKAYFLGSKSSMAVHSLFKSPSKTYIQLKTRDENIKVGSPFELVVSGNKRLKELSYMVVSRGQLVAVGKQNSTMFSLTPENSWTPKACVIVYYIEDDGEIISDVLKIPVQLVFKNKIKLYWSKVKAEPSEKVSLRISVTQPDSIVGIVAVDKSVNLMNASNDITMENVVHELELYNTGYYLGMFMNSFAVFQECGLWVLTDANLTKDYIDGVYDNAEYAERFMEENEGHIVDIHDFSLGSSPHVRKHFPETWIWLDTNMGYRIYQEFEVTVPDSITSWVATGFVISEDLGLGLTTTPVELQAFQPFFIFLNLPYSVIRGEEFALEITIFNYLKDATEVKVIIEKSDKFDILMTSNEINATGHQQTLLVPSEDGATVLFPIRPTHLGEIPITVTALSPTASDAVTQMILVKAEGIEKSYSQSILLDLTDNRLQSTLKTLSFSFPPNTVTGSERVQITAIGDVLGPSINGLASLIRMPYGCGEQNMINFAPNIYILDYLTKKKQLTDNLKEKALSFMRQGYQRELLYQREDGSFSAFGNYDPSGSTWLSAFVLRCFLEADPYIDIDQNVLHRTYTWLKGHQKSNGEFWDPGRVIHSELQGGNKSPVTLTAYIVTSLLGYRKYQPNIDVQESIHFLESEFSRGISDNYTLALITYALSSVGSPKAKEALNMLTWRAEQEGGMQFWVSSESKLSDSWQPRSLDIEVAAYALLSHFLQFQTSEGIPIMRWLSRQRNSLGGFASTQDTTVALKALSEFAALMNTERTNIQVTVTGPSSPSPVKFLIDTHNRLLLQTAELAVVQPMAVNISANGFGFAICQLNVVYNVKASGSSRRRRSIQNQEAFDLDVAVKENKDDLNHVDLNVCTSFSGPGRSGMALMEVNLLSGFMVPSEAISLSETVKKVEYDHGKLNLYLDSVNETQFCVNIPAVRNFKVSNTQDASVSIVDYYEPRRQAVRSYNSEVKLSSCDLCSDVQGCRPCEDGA
Procedure: as §1

Row | Binder | Kd [1] [nM] | Kd [2] [nM]
1 | B1 | 10 | –
2 | B2 | – | 1
